The record followed here is patent US20250188157A1 (UNIVERSITY OF TOKYO, published 2025).

The target of assay [1] is T1, E. coli wild-type SHMT, GST fusion protein (E. coli, UniProt P0A825 1-417).
T1 construct: Overexpressed in E. coli as GST fusion protein, purified, coated at 2 ug/ml on the ELISA plate; not shown: GST tag
T1 sequence: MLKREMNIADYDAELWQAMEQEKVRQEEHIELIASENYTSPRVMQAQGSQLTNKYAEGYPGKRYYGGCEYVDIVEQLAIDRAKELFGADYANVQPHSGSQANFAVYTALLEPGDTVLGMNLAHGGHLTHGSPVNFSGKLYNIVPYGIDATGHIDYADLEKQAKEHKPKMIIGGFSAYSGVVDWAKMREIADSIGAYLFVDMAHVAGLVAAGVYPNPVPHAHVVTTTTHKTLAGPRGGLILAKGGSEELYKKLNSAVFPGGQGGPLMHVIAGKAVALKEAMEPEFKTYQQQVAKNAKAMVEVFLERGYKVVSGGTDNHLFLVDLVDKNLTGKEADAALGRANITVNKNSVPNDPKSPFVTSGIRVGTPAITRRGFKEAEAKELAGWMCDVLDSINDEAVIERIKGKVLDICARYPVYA
As to the kind of experiment: ELISA, GST fusion protein coated at 2 ug/ml, dilution series of antibody.

A further assay has as its target T2, E. coli SHMT (25-45) (E. coli).
T2 construct: Expressed as GST fusion, cleaved with HRV 3C protease and purified for crystallisation; also called E. coli SHMT antigen
T2 peptide: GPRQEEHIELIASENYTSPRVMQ
As to the kind of experiment: X-ray crystal structure of the complex.

Assay [2] concerns the target T3, C. difficile iPGM (486-509) (Clostridium difficile).
T3 construct: the blank is left out; also called C. difficile iPGM antigen
T3 peptide: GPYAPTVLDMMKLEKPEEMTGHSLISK
As to the kind of experiment: X-ray crystal structure of the complex.

A further assay has as its target T4, E. coli iPGM (E. coli, UniProt P37689 1-514, limits assumed).
T4 sequence (looked up): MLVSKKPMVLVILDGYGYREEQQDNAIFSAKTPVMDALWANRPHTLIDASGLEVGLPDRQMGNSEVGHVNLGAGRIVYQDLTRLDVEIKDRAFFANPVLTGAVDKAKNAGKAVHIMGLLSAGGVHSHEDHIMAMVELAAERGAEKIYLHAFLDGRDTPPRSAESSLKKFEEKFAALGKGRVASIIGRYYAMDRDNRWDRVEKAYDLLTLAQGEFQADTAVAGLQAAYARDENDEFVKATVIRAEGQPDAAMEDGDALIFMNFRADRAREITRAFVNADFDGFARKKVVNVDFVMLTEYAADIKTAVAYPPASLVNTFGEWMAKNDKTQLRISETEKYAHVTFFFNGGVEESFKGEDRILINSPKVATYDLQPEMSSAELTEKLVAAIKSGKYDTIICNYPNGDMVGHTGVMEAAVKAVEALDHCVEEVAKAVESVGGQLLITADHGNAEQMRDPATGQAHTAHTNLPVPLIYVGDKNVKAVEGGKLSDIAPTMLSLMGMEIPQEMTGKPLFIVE
As to the kind of experiment: Western blot. On the technique in general: In western blotting, separated proteins are transferred to a membrane and probed.

B1: RS_H007_L001 (antibody, V domains shown)
VH: EVQLQQSGSELVKSGASVKLSCTVSGFNFTNYYIHWVRQRTEQGLEWIGRIDPENNQTTYAPKFQGKATMTADTSSNTAYLQLTSLTSEDTAVYYCARSTVLDYWGHGTTLTVSS
VL: DVLMTQSPASLSVSLGDRATISCRASQSIVHTNGNTYLEWYLQKPGQSPKLLIYKVSNRFSGVPDRFSGSGSGTDFILKISRVEAEDLGVYYCFQGSHVPPTFGGGTKLEVK
Take B1: the binding result in assay [1] is on record as “binds”.

B2: RS_H000_L000GR Fab (Fab, V domains shown)
VH: EVQLQQSGSELVKSGASVKLSCTVSGFNFTDYYIHWVRQRTEQGLEWIGRIDPENDETTYAPKFQGKATMTADTSSNTAYLQLTSLTSEDTAVYYCARSTVLDYWGHGTTLTVSS
VL: DVLMTQTPLSLPVSLGDQASISCRASQSIVHTNGNTYLEWYLQKPGQSPKLLIYKVSNRFSGVPDRFSGSGSGTDFILKISRVEAEDLGVYYCFQGSHVPPTFGGGTKLEVK
notes: also called IgG W27 Fab
As to B2, the binding result (with E. coli SHMT (25-45); in assay [2]) was “binds” each time.

B3: W27G2 antibody (mouse W27G2 hybridoma-producing IgA antibody) (antibody, V domains shown)
VH: EVQLQQSGSELVKSGASVKLSCTVSGFNFTDYYIHWVRQRTEQGLEWIGRIDPENDETTYAPKFQGKATMTADTSSNTAYLQLTSLTSEDTAVYYCARSTVLDYWGHGTTLTVSS
VL: DVLMTQTPLSLPVSLGDQASISCRASQSIVHTNGNTYLEWYLQKPGQSPKLLIYKVSNRFSGVPDRFSGSGSGTDFILKISRVEAEDLGVYYCFQGSHVPPTFGGGTKLEVKR
notes: Hybridoma-producing IgA; Both names are treated as one molecule here; W27G2CHT is the hydroxyapatite crude preparation, W27G2GF the gel filtration multimer fraction; also called W27 antibody; W27G2CHT
As for B3, the binding result in assay [1] is reported as “binds”; in the assay with E. coli iPGM it was “no binding”.

B4: RS_H007_L005 (antibody, V domains shown)
VH: EVQLQQSGSELVKSGASVKLSCTVSGFNFTNYYIHWVRQRTEQGLEWIGRIDPENNQTTYAPKFQGKATMTADTSSNTAYLQLTSLTSEDTAVYYCARSTVLDYWGHGTTLTVSS
VL: DVLMTQSPASLSVSLGDRATISCRSSQSIVHTNGNTYLEWYLQKPGQSPKLLIYKVSNRFSGVPDRFSGSGSGTDFILKISRVEAEDLGVYYCFQGSHVPPTFGGGTKLEVK
As to B4, the binding result in assay [1] is “binds”.

B5: RS_H007_L004 (antibody, V domains shown)
VH: EVQLQQSGSELVKSGASVKLSCTVSGFNFTNYYIHWVRQRTEQGLEWIGRIDPENNQTTYAPKFQGKATMTADTSSNTAYLQLTSLTSEDTAVYYCARSTVLDYWGHGTTLTVSS
VL: DVLMTQSPASMSVSLGDRATISCRSSQSIVHTNGNTYLEWYLQKPGQSPKLLIYKVSNRFSGVPDRFSGSGSGTDFILKISRVEAEDLGVYYCFQGSHVPPTFGGGTKLEVK
As for B5, the binding result in assay [1] was “binds”.

B6: RS_H000_L001 (antibody, V domains shown)
VH: EVQLQQSGSELVKSGASVKLSCTVSGFNFTDYYIHWVRQRTEQGLEWIGRIDPENDETTYAPKFQGKATMTADTSSNTAYLQLTSLTSEDTAVYYCARSTVLDYWGHGTTLTVSS
VL: DVLMTQSPASLSVSLGDRATISCRASQSIVHTNGNTYLEWYLQKPGQSPKLLIYKVSNRFSGVPDRFSGSGSGTDFILKISRVEAEDLGVYYCFQGSHVPPTFGGGTKLEVK
notes: recombinant multimeric IgA co-expressed with J chain (H:L:J = 2:2:1); mainly dimers by SDS-PAGE; also called rW27
Regarding B6, the binding result in assay [1] was “binds”.

B7: RS_H000_L005 (antibody, V domains shown)
VH: EVQLQQSGSELVKSGASVKLSCTVSGFNFTDYYIHWVRQRTEQGLEWIGRIDPENDETTYAPKFQGKATMTADTSSNTAYLQLTSLTSEDTAVYYCARSTVLDYWGHGTTLTVSS
VL: DVLMTQSPASLSVSLGDRATISCRSSQSIVHTNGNTYLEWYLQKPGQSPKLLIYKVSNRFSGVPDRFSGSGSGTDFILKISRVEAEDLGVYYCFQGSHVPPTFGGGTKLEVK
Consider B7, for which, in assay [1], the binding result was “binds”.

B8: RS_H007_L002 (antibody, V domains shown)
VH: EVQLQQSGSELVKSGASVKLSCTVSGFNFTNYYIHWVRQRTEQGLEWIGRIDPENNQTTYAPKFQGKATMTADTSSNTAYLQLTSLTSEDTAVYYCARSTVLDYWGHGTTLTVSS
VL: DVLMTQSPASLSVSLGDRVTISCRASQSIVHTNGNTYLEWYLQKPGQSPKLLIYKVSNRFSGVPDRFSGSGSGTDFILKISRVEAEDLGVYYCFQGSHVPPTFGGGTKLEVK
Turning to B8, the binding result in assay [1] was “binds”.
